Source: PMC4004541, “PEG-Like Nanoprobes: Multimodal, Pharmacokinetically and Optically Tunable Nanomaterials” (PLoS ONE, 2014)

Key:
[1] = Circulating form of PN's: FPLC of sera of injected mice; assay type: in vivo; conditions: 20 nmoles IV tail vein, nude mice, FPLC at 783 nm
Procedure: To see if the variable PN size could be translated into tunable pharmacokinetics, it was essential to first establish that PN’s circulated at PEG-determined, pre-injection dimensions. Mice were injected with PN’s and FPLC chromatograms of serum samples, taken at various times post injection ( Figures 2D, 2E and 2F ), compared with pre-injection PN samples. By using PN’s absorbing at 783 nm, chromatograms from the sera of injected mice reflect this PN, since there are no compounds in serum that absorb at this wavelength. […] Similarly, peaks for PN(783)6.1 ( Figure 2E ) and PN(783)4.3 ( Figure 2F ) where identical for pre-injection samples and for nanoprobes in the sera of injected mice. Thus, molecular weight of the PEG chosen determines PN dimensions in vitro and those dimensions are maintained after injection.
At the indicated time, 50 µl of blood was collected with microhematocrit capillary tube (Fisher Scientific) from the tail, and transferred to Eppendorf microcentrifuge tube with anticoagulant (EDTA) coating (Fisher Scientific). Tubes were centrifuged (5000 rpm for 5 min), and the supernatant was injected to the FPLC, a ÄKTA Purifier 10 with SuperdexTM 200 10/300GL column.
At the indicated time, 50 μl of blood was collected with microhematocrit capillary tube (Fisher Scientific) from the tail, and transferred to Eppendorf microcentrifuge tube with anticoagulant (EDTA) coating (Fisher Scientific). Tubes were centrifuged (5000 rpm for 5 min), and the supernatant was injected to the FPLC, a ÄKTA Purifier 10 with SuperdexTM 200 10/300GL column.

[2] = Elimination by whole animal surface fluorescence imaging; assay type: in vivo; conditions: mice, after injection, n = 6
Procedure: Surface fluorescence images for representative animals are shown and total surface fluorescence is quantified in bar graphs to the right of the image. […] The pharmacokinetics and biodistributions of these PN’s is further analyzed below.
Figure 3 Role PEG in determining elimination by surface fluorescence imaging. A) Animals were injected with unPEGylated peptide and imaged at the times indicated. Bar graph gives whole animal surface fluorescence determined as means and standard deviations, n = 6.
(§1) A Kodak FX multispectral imaging system was used (Carestream Molecular Imaging, Rochester, NY). Excitation at multiple wavelengths (620, 650, 690, 710, 720, 730, 750 and 760 nm) with the emission at 830 nm was setup for IR-783 spectrum; Excitation at multiple wavelengths (420, 440, 460, 480, 510, 520, 530, and 540 nm) with the emission at 600 nm was setup for Cy3 spectrum; Excitation at multiple wavelengths (450, 470, 510, 520, 530, 540, 550, 570, and 590 nm) with the emission at 700 nm was setup for mCherry; with manufacturer’s software to separate (unmix) the IR-783 spectrum, Cy3 spectrum, or mCherry spectrum from skin autofluorescence and chlorophyll fluorescence from food. X-ray images were taken after fluorescence images. […]
as §1, with “Whole animal surface fluorescence imaging: All animal experiments in this work were approved by the Institutional Review Committee of the Massachusetts General Hospital. […]” for “A Kodak FX multispectral imaging system was used (Carestream Molecular Imaging, Rochester, NY).”

[3] = system: mCherry expressing HT-29 tumor; test: Intravital two photon microscopy of mCherry expressing HT-29 tumor in dorsal skinfold chamber; assay type: in vivo, nude mice; conditions: 10 nmoles IV
Excerpt: A feature of PN design is that the fluorochrome can be selected to optimize optical properties for different applications. To image the vascular pharmacokinetic phase with two photon microscopy, PN(497)10.0 was used because its fluorescein is readily excited in the two photon mode. […] To further examine the vascular and interstitial phases, a dorsal skinfold chamber was used for the intravital, two photon microscopy of a mCherry expressing HT-29 tumor ( Figure 5B ).
Dorsal skinfold chamber (DSFC) tumors were grown in female nude mice (nu/nu; 25–30 g; 6–8 weeks old) with modifications from previously published techniques, [35]. 10^6 mCherry-HT-29 tumor cells in matrixgel (BD) were subcutaneously injected in the back of mice ∼1.5 cm left of the dorsal midline approximately halfway from the neck to the tail base. […] On days 2, 3, and 4 days after tumor DSFC implantation, when tumors were typically 3 mm in diameter, image stacks of tumor tissue were recorded under general anesthesia with Ketamine and Xylazine. […]
Multiphoton excitation was obtained through DeepSee and MaiTai Ti:sapphire lasers (Newport/Spectra-Physics) tuned to 920 and 1000 nm to excite all fluorescent probes used. […] Emitted fluorescence was detected through 460/50, 525/50, 595/50, 660/40 band-pass filters and non-descanned detectors to generate four-color images. […]

HT-29 tumor = test: SPECT/CT and surface fluorescence imaging of the EPR effect of the HT-29 tumor; assay type: in vivo, nude mice; conditions: 48 h post-injection, mice bearing HT-29 tumors
Procedure: A) SPECT/CT images of two mice bearing two HT-29 tumors as a function of time after injection. […] B) Surface fluorescence imaging of two additional mice bearing the same tumor.
Female nude mice (25–30 g; 6–8 weeks old; nu/nu) were anesthetized with 2% isoflurane/O2. HT-29 or mCherry-HT-29 cells were detached, pelleted and 200 µl of cell suspension containing 10^6 cells in Matrigel (BD Bioscience) was injected subcutaneously into right and left shoulders. Tumors were allowed to grow 5–7 days before experiments.
The imaging was performed by Triumph II multimodality imaging system (Gamma Medica Ideas, LLC) comprising XSPECT with four CZT (Cadmium Zink Telluride) detectors and X-O CT with CMOS detector. SPECT data of the ^111In-labeled compound was acquired for 60 min using 5-pinhole collimators and processed with 3D-OSEM algorithm using 4 subsets and 5 iterations. 3-dimensional CT data was processed with modified Feldkamp software. […] Animals were under isoflurane anesthesia (1.5%) with O2 flow (1.5 l/min) and kept warm during the imaging with a heated animal bed.

| Substance | Circulating size: FPLC peaks of serum samples after injection versus pre-injection sample [1] | Elimination seen by whole animal surface fluorescence [2] | Localisation by intravital microscopy, interstitial phase ([3]; 20 h post-injection) | Localisation by intravital microscopy, vascular phase ([3]; ten minutes post-injection) | Distribution by SPECT and surface fluorescence (HT-29 tumor) |
| --- | --- | --- | --- | --- | --- |
| (DOTA)Lys(PEG 5 kDa)-Cys(IR-783) [PN(783)4.3, PEG-like Nanoprobe: 5 kDa PEG, IR-783 fluorochrome, DOTA peptide] | identical | bladder accumulation (arrow) at only 20 minutes post injection |  |  |  |
| (DOTA)Lys(PEG 30 kDa)-Cys(Fl) [PN(497)10.0, PEG-like Nanoprobe: 30 kDa PEG, fluorescein, DOTA peptide] |  |  | seen in the interstitium at the tumor periphery | confined to the vasculature |  |
| (DOTA)Lys(PEG 30 kDa)-Cys(IR-783) [PN(783)10.0, PEG-like Nanoprobe: 30 kDa PEG, IR-783 fluorochrome, DOTA peptide] | circulates at its pre-injection size | excellent elimination at 48 h |  |  | seen only in the tumor |
